This passage reports protein production results from a protein production outcome set (Wang et al. 2014).
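Note: failed if final PepcDB status was selected cloned or expressed and not failed if soluble or beyond.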

The nature of the data set: label from the status in PepcDB records.
“MIIPDLFRLNDWSTRRFNLFIWSILVAYDFSFISNVPLYSIEILSKILGFVILTFIPGYIILRIFKVHDIDRVVTLLLAIGLSLSFIMIFGFTVNMFLPYIGVSKPISTFPLFYSLNISILVLMIIYYFRDKKFNSSQNQLRITFSPMLFYFILLPLFSILGTESVNHYNFNMPVLILLFVISLSPILIALDRISRDLYPFMILSISLAILYNMNLISTHLWSYDIFYEAHTSKYVLENGIWNPGNKTMVPLLLFTILSPVYSLICDLNVIWVFKIIFPFFFSLTPLALYYVYKELDFGNYKIDSEIAMLSVFVFIFFYGFYKDMPDKQHIAELFLALILILSIFNTQKRILLFIFSFSLVVSHYGISYFFVFSLIFVSMMSRFRVNADTSFLTPTYTLLFSVLTFSWYIYISAGDVFEVITQVGYHFLSGIKDIFQANNDGRSASAYLSYLSNGILWVIYMLIHLILQFFIFIGVLNLLLSIMHNKTKSFEIALLTIIFYAFLFVQFFKTYGMGLDRILQITLILLSPLSIWGYSFCVKNLNSVYARIISKRIYRNKENGNLNLIFESTLTRNEAINKNHITNLSKKARLCFSIFLMIFFVFNSGFIFWMTGYPLPGYCININPNSGWPVYSESEICGVDWLKSHENEHNRIAVFNQWDTIKSRDGLLVAENFYSKDLIPIQTNTTTLYNSYLFLGKYSVDKVEDGEEDVDLQDTLFYNSTLKNSNKIYNSEKSHLYLAE”: the protein production entry was “failed”.

Take “MKKRILSAVLVSGVTLGAATTVGAEDLSTKIAKQDSIISNLTTEQKAAQNQVSALQAQVSSLQSEQDKLTARNTELEALSKRFEQEIKALTSQIVARNEKLKNQARSAYKNNETSGYINALLNSKSISDVVNRLVAINRAVSANAKLLEQQKADKVSLEEKQAANQTAINTIAANMAMAEENQNTLRTQQANLEAATANLALQLASATEDKANLVAQKEAAEKAAAEALAQEQAAKVKAQEQAAQQAASVEAAKSAITPAPQATPAAQSSNAIEPAALTAPAAPSARPQTSYDSSNTYPVGQCTWGAKSLAPWAGNNWGNGGQWAYSAQAAGYRTGSTPMVGAIAVWNDGGYGHVAVVVEVQSASSIRVMESNYSGRQYIADHRGWFNPTGVTFIYPHLEHHHHHH”: the protein production entry is recorded as “failed”.

Turning to “MQNDFDRVFVLTGGPGSGKTTLIAALRRAGFATSVVAGRGIVRDQSSIGGTALPWSDRTLFAELMLSWEMRSYQNAVEQKGPVFFDRGVPETLGYLRLSGLPVADHVSTAAKRFRYNPRVFIAPPWPDIFAQDEERKQTPDEAKCTYHALAEIYTELGYELVPLPLAPVETRLRFVLADAGLEHHHHHH”, the protein production entry was “failed”.

As to “AIAPLGEEKNGKCDGSIYVNNPHLDSMTDDILYHFNLGTSTHDLPKMFGDVKFVCVGGSPWRMKSFTEYIAKELGLVDPNAEYPNICAGTDRYAMYKVGPVLSVSHGMGIPSISIMLHELIKLLYHARCTDVTVVRIGTSGGIGLKPGTVVVTKQSVDSLFQPHLEQTILGKPVVRSTELDKELAEELLQCGKELGEFEIIIGNTMCTLDFYEGSNVFEDKCTRIAAYSFKIHVL”, the protein production entry is “failed”.

As to “MIGAILAGGYGKRLKPITDSIPKALVEIKDNYTIMDRQLFDFSIMGIEAVYILSGYLGNKIEERYGSRYRDMNIYYLREEKPLGTLYSLRNLIDEVKDDDIVLRNGDTVTDVNFLNFLKKAQDQKYYITMYVTRMKSPFGIVETFGDQIVQFREKPELNHYINAGLYYIKSDAFPYFFEKYIDRDLETTVFPRMAREGLIGSYTEEAMWIGIDSEKDLERIRADYRNREDYPWGYLKVLYDDDRSRLLEYAIKAGSDTEIDCGDGCILRIQSGLGTFGDSSDEKFRNGDVRSISGKVRVNAFENTRLELIISKKLEHHHHHH”, the protein production entry is “failed”.

Turning to “MSYQPTSLTVASYNLRNANGSDSARGDGWGQRYPVIAQMVQYHDFDIFGTQECFLHQLKDMKEALPGYDYIGVGRDDGKDKGEHSAIFYRTDKFDIVEKGDFWLSETPDVPSKGWDAVLPRICSWGHFKCKDTGFEFLFFNLHMDHIGKKARVESAFLVQEKMKELGRGKNLPAILTGDFNVDQTHQSYDAFVSKGVLCDSYEKCDYRYALNGTFNNFDPNSFTESRIDHIFVSPSFHVKRYGVLTDTYRSVRENSKKEDVRDCPEEITIKAYEARTPSDHFPVKVELVFDLEHHHHHH”, the protein production result is “not failed”.

For the sequence “MVNDVEVTVTYTASDEDATVTYVDDDKGGAQVGDIVTVTGKTDDSTTYTVTIPDGYEYVGTDGGVVSSDGKTVTITFTADDSDNVVIHLKHGLEHHHHHH”, the protein production result is on record as “not failed”.

For “MPIVVFHKGDETFTDEVKDNTNLVVRAGIKQFPYPNLRYQCGMGKCATCACRILAGGEHLPEPNWKEKKQLGDRLAQGYRLACQLWITHDIELRQDAAAPAGGGD”, the protein production result is recorded as “failed”.

Take “MEFNQFGQPIGHAIQQPIPGKFKAQSLIGNDVNLVLIEQDRVALKNVEQLWDCIKTEPDERCWTYLPYEAPETFRQLEYNLKRNFGFEPSFHYWIMVEGQAVGWIALMNLREQHAAVEIGNVYFSHRLKQTAAATEVIYLLLNHCFEQGLRRIEWKCDDLNGPSKRAALRFGFVYEGLFRQDRVSKGRNRDTTWFSIIDSEWASLKTAYLQWLNPDNFNHAGKQKKRLEDFIVT”: the protein production entry is reported as “failed”.

Regarding “MFYILNNVLKNIKTLDNVKSKFFLKDSFLKNKLKANNLDDNLSSHIFFNEIFVSLRDDEKKEEHKKVLLFNKVRNDKKHRKRAFQKRGYWKKMHYFIRKNNMMSYAFKVQNIDYEKIKKLKRGEVYSN”, the protein production entry is given as “failed”.

With “WWNWKGHEVHLDCFRNEKAPVKVILLHGVGTNGRQMSMILGGPLSKDGFETIAIDMPTYGVTKVKKGSVVKYDDWVDLACDYIDYEQQRDDRPIVLYGLSAGGMETYHVAAKNKKVKGIIGMTFLDQKNQQVRDETAKNLVMSRVGIPMAGIACNIGLENFKMKMSTASKMSALCNNEKVMEIFNRDKTSAANKASMRFLDSYGNYQPAMEPEDFDVCPILLTQPEQDKWTPLHLSTPFLNKIKKVDVKIVMLENGGHYPVEQPALDQMHDAIVEFIYKVTK”, the protein production entry was “failed”.

As to “MEDKAVSPIIATILLIAITVALAATFYTEVTPYFTEAQYYTPQAVTDVMNVSNGSSFSYDIYIQFFPANLTASQVEISLHVGSSYEYINLKMLSPFGKTTLNNGSITISQYPSAGYFTQGLIFVINSTLPLHSIIFVDLKTSSSINTVSI”, the protein production result was “failed”.

“MNIGLLEALDQLEEEKGISKEEVIPILEKALVSAYRKNFGNSKNVEVVIDRNTGNIKVYQLLEVVEEVEDPATQISLEEAKKIDPLAEVGSIVKKELNVKNFGRIAAQTAKQVLIQRIRELEKEKQFEKYSELKGTVTTAEVIRVMGEWADIRIGKLETRLPKKEWIPGEEIKAGDLVKVYIIDVVKTTKGPKILVSRRVPEFVIGLMKLEIPEVENGIVEIKAIAREPGVRTKVAVASNDPNVDPIGACIGEGGSRIAAILKELKGEKLDVLKWSDDPKQLIANALAPATVIEVEILDKENKAARVLVPPTQLSLAIGKGGQNARLAAKLTGWKIDIKPIMNL”: the protein production result is on record as “not failed”.

“MAALRYAGLDDTDSEDELPPGWEERTTKDGWVYYANHTEEKTQWEHPKTGKRKRVAGDLPYGWEQETDENGQVFFVDHINKRTTYLDPRLAFTVDDNPTKPTTRQRYDGSTTAMEILQGRDFTGKVVVVTGANSGIGFETAKSFALHGAHVILACRNMARASEAVSRILEEWQQGAATTVYCAAVPELEGLGGMYFNNCCRCMPSPEAQSEETARTLWALSERLIQERLGSQSG”: the protein production result was “not failed”.

For “MSDWTDGYVAEIDYTHGFYRELTPAHLRFCLLSRGLRAPEEDAGVSYCELGFGQGVTLNIVAATHPLASVWGTDFNPSHAAAARQLSLDGGTANTAFGDDSFEEFLAREDLPTFDFIVLHGIYSWISAENRAVIGRFLRRRLKVGGVVYISYNTLPGWAAIMPLRALMIDHAKAERAGMTERVDKALAFARTLAEGKAGYFTANPAVAPRLEKMATMSRNYLAHEYFNRDWTPLYHADVVRELTAAKLSFAASAHVTDLIDVVALSAPGREMLAAVNDPLFRETLRDYIVNQQFRRDIFTRGALRLTPLEQIEGLRAQRLALIVPRATIPEKATFPIGTTDLKPEIYGPFFDRLDKGPITLADLAAAEPALAPLPLATLHQAALVAISQGWVAPCPEAAGEGARRKATKRFNAAVLERARRSADLTVLASPVLGGGLGVDRIQQLFLLARAEKHPDPASFVWGILSSQGQRLVKEGKPLEDVDQNMAELRLRAQTFTDSFLPLYDRLGIV”, the protein production entry is recorded as “failed”.

Consider “MILTVGNTKGGVGKTTLAVNLAVERFLAGKDVLLIDADNQRTSSAFSALRESLHGQTGYTCIELSGSAVHQQGRNLAPKYDEVIIDVGGRDTSALRGALAISDIALVPFAVGTFDIWAAEDIGRLIEEARGFNPTLRAFSVLNMADPAGGDNADAAGLLTETSALVYLRASLVRRKAMRNAAAAGLGVLEMTGSSRDSKACGEVGYLAELLYNKLNLEHHHHHH”, for which the protein production result is given as “failed”.

Regarding “MQIGPGSATRLEFRRHFAATPEQLWAALTSPALLPAWLFARGWPMTECVFEPHKGGLIRQVWTGPEGRTRGLTGRVILAEPPHRLIHSELYDEDWTGGETLVTLQLLPVEGGTELAMAVDYATPEARDAVAASAMATEMEEAYRHLDVMLAALEHHHHHH”, the protein production result is on record as “not failed”.

With “MRAGFFVGILGLAGAILQGANVTEAVGSELVLFPSGGGLSAIAAIVALLTAAVLVAVGIFTGYPIATAFTVTGAVVGVGLAMGGQPATAKYIEIVSLWVLTPFVGGGIAFGTAWSLRHEATTEERLVPLLGGLVGVILANIEFVLLAPGSEQASVARAVARAAGTPIFPSMVVVTLLIGVLAGGLLYLDIRADAAAGQRHFLLVMGGLVAFSAGGSQVGLALGPLVPLLGEGPTAAIPITGVLLFGGLGLLVGSWTGAPRMIKALAQDYSSLGPRRSIGALIPSFIIAQAAVFFGIPVSFNEIIVSAIVGSGAAAGGGEVSREKMGKTVLAWIGSLALAFALSYGLFWIIDAAL”, the protein production entry is recorded as “failed”.

For “MKRALEFLKECGVFYLATNEGDQPRVRPFGAVFEYEGKLYIVSNNTKKCFKQMIQNPKVEISGMNKKGQWIRLTGEVANDDRREVKELALEAVPSLKNMYSVDDGIFAVLYFTKGEGTICSFKGENETFSL”, the protein production entry is recorded as “not failed”.

On to “EQTTAADLPLTLAIAREVGNLLLTDSLLAETNRHLNQLNALLESMDDGVISWDEQGNLQFINAQAARVLRLDATASQGRAITELLTLPAVLQQAIKLAHPLKHVEATFESQHQFIDAVITLKPIIETQGTSFILLLHP”, for which the protein production entry is reported as “failed”.

As to “MGLNKEAVKIGFAYVGIVVGAGFSTGQEVMQFFSPYGLWSYIGVILSGLILGFIGRQVAKIGTAFDAQNHESTLDYLFGNKFSKIVDYLLIFFLFGISVTMLAGAGSTFEESFGVPTWLGALIMVIVIYITLLMDFNKIVRALGVVTPFLIILVVIIAAYYLFNGSISFGEVNDAVPDASLVKGILYGINYGGLAFAVGFSTIVAIGGDASRRRVSGAGALFGGIVYTILLALINFALQSEFTKIEDASIPMLTLANDIHPWIGLVLSIIMLAVMYNTILGLMYSFAARFTEPYSKKYHIFIVVMVIVAFALSFVGFAGLINFLYPIMGVVGLVVVIGVLVKYYSRKRQNKKFIA”, the protein production result was “failed”.

Take “MSALREALRDLPDAVFADVLESEDEYLLVLDLPGVTAETIDVTVEGGRLRIDGQRTKDVPGEFTFVREDRSVFLDAELPLPPDTTGQGGEGTVENGVLELRLPKATAAPSTTIPIDGD”: the protein production result is given as “failed”.
